In the supplement of paper PMC9732359:
± gives the uncertainty stated by the source.

Assay: protein stability index of a GFP-peptide fusion (yeast GPS) (PSI 1-4); higher = more stable; sorted into four equal gates, so the index is relative within each strain
In short: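 Sequencing reads from sorted gates were used to score each peptide. The library consisted of tiled 17-residue yeast protein peptides fused downstream of GFP on a Cherry-expressing plasmid, pooled and carried in yeast. Mid-log cultures in leucine-free medium were split into four equal gates by GFP/Cherry ratio, and each gate's plasmids were PCR-amplified and Illumina-sequenced. The protein stability index adds up, over all gates, the read frequency multiplied by the gate number.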

PPSLKIIDGPKALILAP [PRP28]
protein stability index (doa10∆): 1.62 ± 0.055 | protein stability index (pdr5∆): 1.77 ± 0.07 | protein stability index (san1∆): 1.51 ± 0.12 | protein stability index (ubr1∆): 1.63 ± 0.039

KRPNNKTLEKLESTIAE [IRR1]
protein stability index (doa10∆): 3.62 ± 0.14 | protein stability index (pdr5∆): 3.35 ± 0.1 | protein stability index (san1∆): 3.01 ± 0.096 | protein stability index (ubr1∆): 3.31 ± 0.14

FDSTAFNATVDETKGFD [MED2]
protein stability index (doa10∆): 3.25 ± 0.06 | protein stability index (pdr5∆): 3.28 ± 0.063 | protein stability index (san1∆): 3.15 ± 0.063 | protein stability index (ubr1∆): 3.21 ± 0.046

MGGVSALRGMFKDRFKD [FAS2]
protein stability index (doa10∆): 3.56 ± 0.068 | protein stability index (pdr5∆): 3.55 ± 0.067 | protein stability index (san1∆): 3.41 ± 0.059 | protein stability index (ubr1∆): 3.54 ± 0.069

SRPGQSGRCDGYILEGE [RPS8A]
protein stability index (doa10∆): 3.38 ± 0.19 | protein stability index (pdr5∆): 3.49 ± 0.17 | protein stability index (san1∆): 3.3 ± 0.17 | protein stability index (ubr1∆): 3.38 ± 0.049

HPNRVLEHLHSTAFQNT [COR1]
protein stability index (doa10∆): 2.79 ± 0.041 | protein stability index (pdr5∆): 2.92 ± 0.047 | protein stability index (san1∆): 2.4 ± 0.051 | protein stability index (ubr1∆): 2.92 ± 0.045

LDDNSTSLEKQINSIKK [YJL041W/NSP1]
protein stability index (doa10∆): 2.74 ± 0.078 | protein stability index (pdr5∆): 3.01 ± 0.058 | protein stability index (san1∆): 2.98 ± 0.038 | protein stability index (ubr1∆): 2.95 ± 0.045

EFTLFMDIAERIAVLHQ [YGL172W/NUP49]
protein stability index (doa10∆): 2.77 ± 0.075 | protein stability index (pdr5∆): 2.54 ± 0.056 | protein stability index (san1∆): 2.24 ± 0.068 | protein stability index (ubr1∆): 2.9 ± 0.048

NDNNSPHTPVTRKGYIP [YLR018C/POM34]
protein stability index (doa10∆): 3.1 ± 0.081 | protein stability index (pdr5∆): 2.88 ± 0.073 | protein stability index (san1∆): 2.85 ± 0.078 | protein stability index (ubr1∆): 3.01 ± 0.055

NEDDLTVKLTEIVWTSS [RPO31]
protein stability index (doa10∆): 2.89 ± 0.093 | protein stability index (pdr5∆): 3.04 ± 0.09 | protein stability index (san1∆): 3.01 ± 0.074 | protein stability index (ubr1∆): 3.14 ± 0.059

KAEIPPEYAKVGDFLLQ [SIN4]
protein stability index (doa10∆): 1.52 ± 0.079 | protein stability index (pdr5∆): 1.93 ± 0.06 | protein stability index (san1∆): 1.7 ± 0.093 | protein stability index (ubr1∆): 1.46 ± 0.061

KLNTLSEILSFDPVYTT [YML103C/NUP188]
protein stability index (doa10∆): 2.54 ± 0.061 | protein stability index (pdr5∆): 2.77 ± 0.067 | protein stability index (san1∆): 2.85 ± 0.073 | protein stability index (ubr1∆): 2.77 ± 0.078

KTDQEEEREGTDQSTEE [CSL4]
protein stability index (doa10∆): 3.12 ± 0.16

GVNELAPIPKGRVKYTK [POP1]
protein stability index (doa10∆): 3.05 ± 0.08 | protein stability index (pdr5∆): 2.87 ± 0.06 | protein stability index (san1∆): 3.17 ± 0.066 | protein stability index (ubr1∆): 2.67 ± 0.069

MNVSTSTFQTRRRRLKK [RPB4]
protein stability index (doa10∆): 3.39 ± 0.2 | protein stability index (pdr5∆): 3.43 ± 0.13 | protein stability index (ubr1∆): 3.38 ± 0.14

DHTVDEIDHVEYYVMMD [SRB8]
protein stability index (doa10∆): 3.01 ± 0.083 | protein stability index (pdr5∆): 2.63 ± 0.062 | protein stability index (san1∆): 2.96 ± 0.081 | protein stability index (ubr1∆): 3.02 ± 0.047

DYQVQGLNWLISLHENK [ISW2]
protein stability index (doa10∆): 1.53 ± 0.052 | protein stability index (pdr5∆): 2.15 ± 0.058 | protein stability index (san1∆): 1.64 ± 0.078 | protein stability index (ubr1∆): 2.19 ± 0.054

SVYYHKGNFRTKPFENV [SNU114]
protein stability index (doa10∆): 3.35 ± 0.065 | protein stability index (pdr5∆): 3.35 ± 0.091 | protein stability index (san1∆): 3.37 ± 0.059 | protein stability index (ubr1∆): 3.31 ± 0.092

SWASEGISKKTRIAGVV [RPS8A]
protein stability index (doa10∆): 2.54 ± 0.039 | protein stability index (pdr5∆): 2.28 ± 0.034 | protein stability index (san1∆): 2.17 ± 0.045 | protein stability index (ubr1∆): 2.03 ± 0.034

EMNLHVPQTEEARAEAI [RPO31]
protein stability index (doa10∆): 3.09 ± 0.1 | protein stability index (pdr5∆): 3.08 ± 0.085 | protein stability index (san1∆): 3.05 ± 0.08 | protein stability index (ubr1∆): 3.12 ± 0.045

LDPISLILIPGETMWVP [RPN13]
protein stability index (doa10∆): 2.28 ± 0.095 | protein stability index (pdr5∆): 2.45 ± 0.049 | protein stability index (san1∆): 2.95 ± 0.093 | protein stability index (ubr1∆): 3.4 ± 0.12

QPIEKNGDKMPLKFKLG [YJR042W/NUP85]
protein stability index (doa10∆): 2.74 ± 0.064 | protein stability index (pdr5∆): 2.98 ± 0.069 | protein stability index (san1∆): 2.52 ± 0.086 | protein stability index (ubr1∆): 3.08 ± 0.042

WLNFLRGTIPLLERYIG [PRP8]
protein stability index (doa10∆): 1.41 ± 0.068 | protein stability index (pdr5∆): 1.23 ± 0.046 | protein stability index (san1∆): 1.18 ± 0.077 | protein stability index (ubr1∆): 1.1 ± 0.065

WGAETDELSMIMEHFSQ [RPS12]
protein stability index (doa10∆): 2.93 ± 0.11 | protein stability index (pdr5∆): 3.12 ± 0.17 | protein stability index (san1∆): 3.44 ± 0.071 | protein stability index (ubr1∆): 3.29 ± 0.12

RNFSLAIIDKNTGLTFK [PRE4]
protein stability index (doa10∆): 3.14 ± 0.068 | protein stability index (pdr5∆): 3.07 ± 0.071 | protein stability index (san1∆): 3.14 ± 0.043 | protein stability index (ubr1∆): 3.18 ± 0.058

RVFNAKDTTGPKAISNF [YCS4]
protein stability index (doa10∆): 2.9 ± 0.1 | protein stability index (pdr5∆): 2.82 ± 0.13 | protein stability index (san1∆): 3.18 ± 0.11 | protein stability index (ubr1∆): 2.9 ± 0.1

SNMLGSNEDVMMTGAEQ [RPB3]
protein stability index (doa10∆): 3.47 ± 0.22 | protein stability index (pdr5∆): 3.35 ± 0.12 | protein stability index (san1∆): 3.26 ± 0.1 | protein stability index (ubr1∆): 3.08 ± 0.089

MAKRVADAQIQRETYDS [YLR335W/NUP2]
protein stability index (doa10∆): 2.21 ± 0.22 | protein stability index (pdr5∆): 2.7 ± 0.14 | protein stability index (san1∆): 2.08 ± 0.12 | protein stability index (ubr1∆): 2.21 ± 0.1

PKDKAIKRMAIRNIVEA [RPS26A]
protein stability index (doa10∆): 1.25 ± 0.068 | protein stability index (pdr5∆): 1.63 ± 0.096 | protein stability index (san1∆): 1.9 ± 0.15 | protein stability index (ubr1∆): 1.95 ± 0.054

AVATPKAEVTQLSNGIV [COR1]
protein stability index (doa10∆): 2.77 ± 0.074 | protein stability index (pdr5∆): 3.11 ± 0.066 | protein stability index (san1∆): 3.12 ± 0.053 | protein stability index (ubr1∆): 2.88 ± 0.045

TTKLAFLVEYEGQENNY [SIR4]
protein stability index (doa10∆): 2.87 ± 0.085 | protein stability index (pdr5∆): 2.85 ± 0.068 | protein stability index (san1∆): 2.4 ± 0.1 | protein stability index (ubr1∆): 3.19 ± 0.052

GRKYTTLGKLSTSVGWK [RPL16B]
protein stability index (doa10∆): 2.79 ± 0.1 | protein stability index (pdr5∆): 1.94 ± 0.1 | protein stability index (san1∆): 2.77 ± 0.11 | protein stability index (ubr1∆): 2.64 ± 0.067

EVSCKLLETITYVLNTW [YML103C/NUP188]
protein stability index (doa10∆): 2.15 ± 0.068 | protein stability index (pdr5∆): 2.35 ± 0.073 | protein stability index (san1∆): 2.07 ± 0.11 | protein stability index (ubr1∆): 2.11 ± 0.082

RDVMCTDGVIGSRTTTN [RPO31]
protein stability index (doa10∆): 3.2 ± 0.11 | protein stability index (pdr5∆): 3.48 ± 0.084 | protein stability index (san1∆): 3.16 ± 0.084 | protein stability index (ubr1∆): 3.16 ± 0.052

GNPVNDANLLGAEVLIK [COR1]
protein stability index (doa10∆): 2.56 ± 0.086 | protein stability index (pdr5∆): 3.02 ± 0.093 | protein stability index (san1∆): 2.63 ± 0.075 | protein stability index (ubr1∆): 2.89 ± 0.035

KILGKGRIPNVPVIVKA [RPL28]
protein stability index (doa10∆): 2.35 ± 0.065 | protein stability index (pdr5∆): 1.87 ± 0.081 | protein stability index (san1∆): 2.37 ± 0.085 | protein stability index (ubr1∆): 3.24 ± 0.054

DFVRKGGLQKGKLVVSQ [SIR3]
protein stability index (doa10∆): 3.14 ± 0.079 | protein stability index (pdr5∆): 3.22 ± 0.091 | protein stability index (san1∆): 2.75 ± 0.055 | protein stability index (ubr1∆): 3.35 ± 0.077

YSYTTIVLSDQTQEFFL [YJL039C/NUP192]
protein stability index (doa10∆): 2.79 ± 0.077 | protein stability index (pdr5∆): 2.92 ± 0.068 | protein stability index (san1∆): 2.93 ± 0.081 | protein stability index (ubr1∆): 2.82 ± 0.062

QVKKPRKQRVKKKTKKE [SWI1]
protein stability index (doa10∆): 3.13 ± 0.24 | protein stability index (pdr5∆): 3.37 ± 0.13 | protein stability index (san1∆): 3.5 ± 0.12 | protein stability index (ubr1∆): 3.38 ± 0.1

NKTNNEDLFDDYPSTSL [NUT1]
protein stability index (doa10∆): 2.22 ± 0.078 | protein stability index (pdr5∆): 3.09 ± 0.054 | protein stability index (san1∆): 2.85 ± 0.12 | protein stability index (ubr1∆): 1.79 ± 0.061

TSSKSSSLSAIIVFGYP [YDL088C/ASM4]
protein stability index (doa10∆): 2.31 ± 0.055 | protein stability index (pdr5∆): 2.06 ± 0.048 | protein stability index (san1∆): 2.71 ± 0.072 | protein stability index (ubr1∆): 2.58 ± 0.05

SYYSREQDALFITRLAQ [RPN1]
protein stability index (doa10∆): 1.71 ± 0.044 | protein stability index (pdr5∆): 1.85 ± 0.045 | protein stability index (san1∆): 1.65 ± 0.078 | protein stability index (ubr1∆): 1.8 ± 0.042

KIEGVATPQDAQFYLGK [RPL33A]
protein stability index (doa10∆): 2.78 ± 0.086 | protein stability index (pdr5∆): 3.12 ± 0.07 | protein stability index (san1∆): 3.3 ± 0.063 | protein stability index (ubr1∆): 3.25 ± 0.083

MDWLDNWGRKEHDLLRQ [ITC1]
protein stability index (doa10∆): 3.22 ± 0.19 | protein stability index (pdr5∆): 3.33 ± 0.26 | protein stability index (san1∆): 3.48 ± 0.13

QKYNQIQKQIETIQADL [SMC2]
protein stability index (doa10∆): 2.68 ± 0.047 | protein stability index (pdr5∆): 2.57 ± 0.042 | protein stability index (san1∆): 2.6 ± 0.047 | protein stability index (ubr1∆): 2.45 ± 0.031

GLNSDAEEVRNFALTTL [ECM29]
protein stability index (doa10∆): 2.84 ± 0.14 | protein stability index (pdr5∆): 3.13 ± 0.29 | protein stability index (san1∆): 1.38 ± 0.098 | protein stability index (ubr1∆): 1.62 ± 0.11

NYGMIAINPGRVAASFS [FAS1]
protein stability index (doa10∆): 1.72 ± 0.1 | protein stability index (pdr5∆): 1.89 ± 0.09 | protein stability index (san1∆): 1.46 ± 0.076 | protein stability index (ubr1∆): 1.81 ± 0.06

QMSLEANVVDITNDWEQ [YJR042W/NUP85]
protein stability index (doa10∆): 2.65 ± 0.077 | protein stability index (pdr5∆): 2.77 ± 0.064 | protein stability index (san1∆): 2.92 ± 0.058 | protein stability index (ubr1∆): 2.87 ± 0.058

NVRSVIRSSRSRGIVIG [RPP1]
protein stability index (doa10∆): 3 ± 0.076 | protein stability index (pdr5∆): 3.1 ± 0.078 | protein stability index (san1∆): 3.15 ± 0.16 | protein stability index (ubr1∆): 3.2 ± 0.072

KIDLLSGQFYFRNPTPL [RGR1]
protein stability index (doa10∆): 2.67 ± 0.22 | protein stability index (pdr5∆): 3.03 ± 0.15 | protein stability index (san1∆): 3.12 ± 0.076 | protein stability index (ubr1∆): 2.82 ± 0.074

KGPAIDELSSKELVECH [NNF1]
protein stability index (doa10∆): 3.04 ± 0.055 | protein stability index (pdr5∆): 3.13 ± 0.068 | protein stability index (san1∆): 2.78 ± 0.077 | protein stability index (ubr1∆): 2.82 ± 0.047

VSIDIEEPQLDLLDDVL [MTW1]
protein stability index (doa10∆): 2.62 ± 0.094 | protein stability index (pdr5∆): 3.09 ± 0.067 | protein stability index (san1∆): 3.24 ± 0.045 | protein stability index (ubr1∆): 3.19 ± 0.048
